According to IntAct's records for PubMed 29039417:

B1: Protein PTHB1 (Homo sapiens), Q3SYG4 (parent)
chain: MSLFKARDWWSTILGDKEEFDQGCLCLANVDNSGNGQDKIIVGSFMGYLRIFSPHPAKTGDGAQAEDLLLEVDLRDPVLQVEVGKFVSGTEMLHLAVLHSRKLCVYSVSGTLGNVEHGNQCQMKLMYEHNLQRTACNMTYGSFGGVKGRDLICIQSMDGMLMVFEQESYAFGRFLPGFLLPGPLAYSSRTDSFLTVSSCQQVESYKYQVLAFATDADKRQETEQQKLGSGKRLVVDWTLNIGEQALDICIVSFNQSASSVFVLGERNFFCLKDNGQIRFMKKLDWSPSCFLPYCSVSEGTINTLIGNHNNMLHIYQDVTLKWATQLPHIPVAVRVGCLHDLKGVIVTLSDDGHLQCSYLGTDPSLFQAPNVQSRELNYDELDVEMKELQKIIKDVNKSQGVWPMTEREDDLNVSVVVSPNFDSVSQATDVEVGTDLVPSVTVKVTLQNRVILQKAKLSVYVQPPLELTCDQFTFEFMTPDLTRTVSFSVYLKRSYTPSELEGNAVVSYSRPTDRNPDGIPRVIQCKFRLPLKLICLPGQPSKTASHKITIDTNKSPVSLLSLFPGFASQSDDDQVNVMGFHFLGGARITVLASKTSQRYRIQSEQFEDLWLITNELILRLQEYFEKQGVKDFACSFSGSIPLQEYFELIDHHFELRINGEKLEELLSERAVQFRAIQRRLLARFKDKTPAPLQHLDTLLDGTYKQVIALADAVEENQGNLFQSFTRLKSATHLVILLIALWQKLSADQVAILEAAFLPLQEDTQELGWEETVDAAISHLLKTCLSKSSKEQALNLNSQLNIPKDTSQLKKHITLLCDRLSKGGRLCLSTDAAAPQTMVMPGGCTTIPESDLEERSVEQDSTELFTNHRHLTAETPRPEVSPLQGVSE
partner: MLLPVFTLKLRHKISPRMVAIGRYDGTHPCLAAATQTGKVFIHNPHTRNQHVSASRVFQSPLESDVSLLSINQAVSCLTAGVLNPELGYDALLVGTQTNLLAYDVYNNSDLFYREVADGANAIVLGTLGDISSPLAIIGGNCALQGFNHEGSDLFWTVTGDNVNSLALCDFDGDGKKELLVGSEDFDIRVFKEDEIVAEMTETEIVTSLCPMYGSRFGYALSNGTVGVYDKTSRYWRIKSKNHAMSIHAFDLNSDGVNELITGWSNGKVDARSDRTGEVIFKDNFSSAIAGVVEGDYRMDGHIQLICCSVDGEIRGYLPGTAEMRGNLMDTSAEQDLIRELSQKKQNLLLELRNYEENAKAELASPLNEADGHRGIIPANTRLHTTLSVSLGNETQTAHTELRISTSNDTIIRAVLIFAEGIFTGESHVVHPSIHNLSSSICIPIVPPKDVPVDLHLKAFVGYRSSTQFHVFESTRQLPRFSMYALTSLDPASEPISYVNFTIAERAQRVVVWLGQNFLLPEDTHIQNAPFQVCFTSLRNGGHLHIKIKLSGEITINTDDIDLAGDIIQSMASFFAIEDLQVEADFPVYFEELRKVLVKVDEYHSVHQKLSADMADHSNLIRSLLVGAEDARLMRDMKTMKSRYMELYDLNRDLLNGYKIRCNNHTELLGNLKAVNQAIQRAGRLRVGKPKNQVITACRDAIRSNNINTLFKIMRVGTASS

Variants of: B1
Conditions: with bbs2_human BBS2, Q9BXC9

Variant | effect of a mutation on the interaction
G767E | with no effect
G767K | with no effect
G767A | with no effect
D747K | with no effect
D747A | with no effect
L799K | with no effect
L799E | with no effect
S777E | with no effect
F756A | with no effect
V749A | with no effect
V749E | with no effect
L795E | with no effect
L795A | with no effect
L795K | with no effect
N794A | with no effect
N794E | with no effect
E790A | with no effect
N800A | with no effect
A750E | with no effect
W741S | disrupting interaction strength
T782K | with no effect
T782E | with no effect
S797A | with no effect
S797K | with no effect
C783A | with no effect
C783E | with no effect

Variant | effect of a mutation on the interaction
A754E | with no effect
A754K | with no effect
Q791S | disrupting interaction strength
Q791A | with no effect
Q791L | disrupting interaction strength
Q791E | with no effect
Q791K | with no effect
Q748E | with no effect
A792K | with no effect
A792E | with no effect
L744K | with no effect
L744E | with no effect
L744A | with no effect
I751E | with no effect
I751A | with no effect
I751K | with no effect
E753A | with no effect
E753K | with no effect
E765A | with no effect
D804F | disrupting interaction strength
D804E | with no effect
D804K | with no effect
D804A | with no effect
K803E | with no effect
K803A | with no effect
K789A | with no effect

Variant | effect of a mutation on the interaction
D762E | with no effect
P758A | with no effect
P758E | with no effect
L780E | with no effect
L780A | with no effect
L780K | with no effect
L766A | with no effect
I801E | with no effect
I801K | with no effect
A755E | with no effect
A755K | with no effect
L757E | with no effect
L757K | with no effect
L757A | with no effect
N796A | with no effect
N796E | with no effect
L784E | with no effect
L784A | with no effect
Q798K | with no effect
Q798E | with no effect
H778K | with no effect
A774K | with no effect
A774E | with no effect
P802A | with no effect
P802K | with no effect
P802E | with no effect

Variant | effect of a mutation on the interaction
L759E | with no effect
L759A | with no effect
L759K | with no effect
Q742K | with no effect
Q742A | with no effect
Q742E | with no effect
Q742S | disrupting interaction strength
E769K | with no effect
E769A | with no effect
L779E | with no effect
T771A | with no effect
T771K | with no effect
T771E | with no effect
Q760K | with no effect
Q760A | with no effect
Q760E | with no effect
E761A | with no effect
E761K | with no effect
V772K | with no effect
V772E | with no effect
L752E | with no effect
L752A | with no effect
D773E | with no effect
S745E | with no effect
S745K | with no effect
S745A | with no effect

Variant | effect of a mutation on the interaction
L793E | with no effect
L793K | with no effect
L793A | with no effect
S787K | with no effect
A746E | with no effect
A746K | with no effect
I776K | with no effect
I776A | with no effect
I776E | with no effect
K781A | with no effect
K781E | with no effect
K786A | with no effect
K786E | with no effect
S788E | with no effect
S788A | with no effect
W768A | with no effect
W768K | with no effect
Q764A | with no effect
T763K | with no effect
E770A | with no effect
E770K | with no effect
A775T | disrupting interaction strength
A775E | with no effect

The next lines start with the values.

effect of a mutation on the interaction | Variant
with no effect | D747E
with no effect | L799A
with no effect | S777A
with no effect | S777K
disrupting interaction strength | S785A
with no effect | S785K
with no effect | S785E
with no effect | F756E
with no effect | F756K
with no effect | V749K
with no effect | N794K
with no effect | E790K
with no effect | N800E
with no effect | N800K
with no effect | A750K
with no effect | T782A
with no effect | S797E
with no effect | C783K
with no effect | Q748A
disrupting interaction strength | Q748K
disrupting interaction strength | Q748L
disrupting interaction strength | L744F
with no effect | E765K
with no effect | K789E
with no effect | D762K
with no effect | D762A
with no effect | P758K
with no effect | L766K

effect of a mutation on the interaction | Variant
with no effect | L766E
with no effect | I801A
with no effect | N796K
with no effect | L784K
with no effect | Q798A
with no effect | H778A
with no effect | H778E
disrupting interaction strength | Q742L
with no effect | L779A
with no effect | L779K
disrupting interaction strength | V772A
with no effect | T805A
with no effect | T805E
with no effect | L752K
with no effect | D773K
with no effect | D773A
with no effect | S787A
with no effect | S787E
with no effect | S788K
with no effect | W768E
with no effect | K743E
with no effect | K743A
with no effect | Q764E
with no effect | Q764K
with no effect | T763E
with no effect | T763A
with no effect | A775K
